This note sets out measurements from paper PMC3458437.

Substrate in this series: O=P(O)(O)CCO
Description: O2 consumption, Clark-type oxygen electrode, initial rates. Format: biochemical, Nitrosopumilus maritimus. The settings on record: co-substrate O2 about 250 μM; Fe(II)-reconstituted enzyme; labelled compound.

Several values for one entry are separate records, joined by “and”; a condition that tells them apart may be missing. Equal entries are not always repeated.

B1: methylphosphonate synthase (MPnS) (Nitrosopumilus maritimus SCM1) (protein)
chain: MEKKIDFKPDSYLIRSGNNFLGILNDIKRRPEDAANELGVSIEEINSIISGKQKISPSLIEKAVNIWPVNERDFYIVSDDCSSGILIMTSQDSIKSSRIMERAGKPYYEYRDTAMSKTAPFRPEWILELCKVENNDPENPKAQWNNGHFMHQFTYFIGEVNFYYKDPEGKKHVAIMNTGDSMYITPFTPHTFTTRDGASQNGLILALTYGSKLTGDIQQELSSLSLDCGSQYALDFTNHENASLSLLEYYFELSNLTKEKFAKRTNFSMETLADFFTKKKLPTFDELKIIAKALNVNSRDLMPNDLTESKVIVKTHDQCDHWKYPESGNYEFYELASTTALPHSKAFEIDVSSSEDLNLDLKVGLHQYVYNIGDSALTINWNYENKTYQKSLNPGDSAYIKPFVPHNFRGNGKILILRIGGKISGDSQRELSFVGRENTQRAISETMQWFDPKGSNS
On to B1, for which the Km is 7.1 ± 0.8 µM and 6.5 ± 1.5 µM and 7.2 ± 1.4 µM; the catalytic constant (kcat) worked out at 0.17 ± 0.01 s⁻¹; the catalytic efficiency (kcat/Km) was 24000 M⁻¹ s⁻¹ (2×) and 26000 M⁻¹ s⁻¹.

Broadly, the Km is the substrate concentration at which the rate is half of its maximum. For orientation: kcat means the maximal rate divided by the concentration of active sites. The kcat/Km is the second-order rate constant that governs catalysis at low substrate concentration.
